From patent publication US20100098761A1, “Polymer Compositions For Biomedical And Material Applications” (University of Massachusetts Medical School, priority 2007, published 2010)

System: murine macrophage RAW264.7 cells
Assay: Osteoclastic differentiation of RAW264.7 cells (TRAP stain)
Assay type: cell-based
Method: Grafts (5×5×1 mm, FlexBone 25% HA-25% TCP) were pre-absorbed with varying amounts of growth factors and cytokines to provide an exogenous supply for remodeling. […] The preferred loading dose of RANKL (10 ng/FlexBone graft) was determined by the osteoclastic differentiation of macrophage RAW264.7, induced by the RANKL released from the graft as indicated by positive TRAP stains (purple) of multinucleated cells on Day 6. […] Finally, the preferred loading dose of rhVEGF165 in stimulating the proliferation of human vascular endothelial cells in culture was determined to be 5 ng/graft.
Materials. The radical inhibitors in the commercial 2-hydroxyethyl methacrylate (HEMA, Aldrich) and ethylene glycol dimethacrylate (EGDMA, Aldrich) were removed via distillation under reduced pressure and by passing through a 4 Å molecular sieve column prior to use, respectively. […] In a typical procedure, 0-5.0 wt % TCH was dissolved in the mixture of freshly distilled monomer HEMA, 2% cross-linker EGDMA and viscous solvent ethylene glycol under bath-sonication, before 25 wt % HA, 25 wt % TCP, and the aqueous radical initiators ammonium persulfate and sodium metasulfite were added and thoroughly mixed (Table I). […] The compressive behavior of FlexBone in fully hydrated state as a function of TCH content was analyzed using a Q800 Dynamic Mechanical Analyzer (DMA, TA Instruments) equipped with a submersion compression fixture. […] An L-square was used to make sure that the sanded top and bottom surfaces were parallel prior to testing, and the final dimensions of each specimen were measured by a digital caliper. […] All stress-strain curves presented are based on the engineering stress and engineering strain recorded, assuming a fixed cross-section of the material defined at the start of the test. […] The release of TCH from FlexBone vs. pHEMA hydrogel in water as a function of time and the initial TCH incorporation was monitored over 1 week at 357.9 nm. […]

B1: rmRANKL: recombinant receptor activator of nuclear factor κB ligand, E. coli expressed (protein, UniProt O35235 139-316, looked up)
Tumor necrosis factor ligand …: FSGAPAMMEGSWLDVAQRGKPEAQPFAHLTINAASIPSGSHKVTLSSWYHDRGWAKISNMTLSNGKLRVNQDGFYYLYANICFRHHETSGSVPTDYLQLMVYVVKTSIKIPSSHNLMKGGSTKNWSGNSEFHFYSINVGGFFKLRAGEEISIQVSNPSLLDPDQDATYFGAFKVQDID
In the case of B1, the osteoclast differentiation (continued supplement of 10-ng every other day, day six) is reported as “formation of TRAP-positive multinucleated osteoclasts”, the preferred loading dose (determined by osteoclastic differentiation of RAW264.7, TRAP stains Day 6) is reported as 10 ng/FlexBone graft and the osteoclast differentiation (single supplement of 10-ng directly to culture) is reported as “not sufficient in inducing the osteoclast differentiation”.
